Reference: US20210292393A1 (published 2021)
Numbering of substitutions follows the chain as printed.

B1: antibody 409 (antibody, V domains shown)
VH: QVTLRESGPALVKPTQTLTLTCTFSGFSLSTSGMCVSWIRQPPGKALEWLALIDWDDDKYYSTSLKTRLTISKDTSKNQVVLTMTNMDPVDTATYYCARTTYYYVSGRRAEFDPWGQGTLVTVSS
VL: NFMLTQPHSVSESPGKTVTISCTGSSGSIASNYVQWYQQRPGSAPTTVIYEDNQRPSGVPDRFSGSIDSSSNSASLTISGLKTEDEADYYCQSYDSSNQGVFGGGTKLTVL
B2: antibody 407 (antibody, V domains shown)
VH: QVQLVESGGGVVQPGRSLRLSCAASGFTFSSYGMHWVRQAPGKGLEWVAVISYDGSNKYYADSVKGRFTISRDNSKNTLYLQMNSLRAEDTAVYYCAKCGWDYDFWVGQGYGMDVWGQGTTVTVSS
VL: not shown
B3: antibody 395 (antibody, V domains shown)
VH: QVQLVQSGSELKKPGASVKLSCQASGYTFSNHAMNWVRQAPGQGLEWMGWINTNTGNPTYAQGFTGRFVFSLDTSVGTAYLHISSLKAEDTAFYYCARASARPGVATNLDFWGQGTLVVVSS
VL: DIQMTQSPSSLSASVGDRVTITCRTSQNIDNYLNWYQQKPGKAPNLLIYAASRLHSGVPSRFSGSGSGTDFTLIISSLQPEDLATYYCQQSYSNPLTFGPGTKVDIR
B4: anti-SARS-CoV-2 antibody 456 (antibody, V domains shown)
VH: QVQLQQWGAGLLKPSETLSLTCAVYGGSFSGYYWSWIRQPPGKGLEWIGEINHSGSTNYNPSLKSRVTISVDTSKNQFSLKLSSVTAADTAVYYCARDGSGSYYLSYYFDYWGQGTLVTVSS
VL: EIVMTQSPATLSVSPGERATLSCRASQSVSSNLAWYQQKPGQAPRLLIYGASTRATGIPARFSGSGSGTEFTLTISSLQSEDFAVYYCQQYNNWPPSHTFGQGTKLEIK
B5: antibody 372 (antibody, V domains shown)
VH: QVQLVESGGGVVQPGRSLRLSCAASGFTFSSYAMHWVRQAPGKGLEWVAVISYDGSNKYYADSVKGRFTISRDNSKNTLYLQMNSLRAEDTAVYYCARDLGTSALLWFGELFLNYGMDVWGQGTTVTVSS
VL: QSALTQPRSVSGSPGQSVTISCTGTSSDVGGYNYVSWYQQHPGKAPKLMIYDVSKRPSGVPDRFSGSKSGNTASLTISGLQAEDEADYYCCSYAGSPILVFGGGTKLTVL
B6: antibody 405 (antibody, V domains shown)
VH: not shown
VL: B5 VL with P97Y, I98N, L99V
B7: antibody 565 (antibody, V domains shown)
VH: EVQLVESGGGLVQPGGSLRLSCTASGFTLSDHYMDWVRQAPGKGLEWVARTRNKVNSYSTEYAASVKGRFSMSRDDSKNSLYLQMTRLQTDDTAVYYCARSLMILGARGASDYWGQGTLVTVSS
VL: DIQMTQSPSTLSASAGDRVTITCRASQNIDSWLAWYQQHPGKAPNLLIYKASFLQSGVPSRFSGSGSGTEFTLTISSLQPDDFATYYCQQYNSYPVTFGQGTRLEIK
B8: antibody 563 (antibody, V domains shown)
VH: QVQLVESGGGVVQPGRSLRLSCAASGFTFSSYAMHWVRQAPGKGLEWVAVISDDGSNKYYADSVKGRFTISRDNSKNTLYLQMNSLRAEDTAVYYCARDIVATIRRLFDYWGQGTLVTVSS
VL: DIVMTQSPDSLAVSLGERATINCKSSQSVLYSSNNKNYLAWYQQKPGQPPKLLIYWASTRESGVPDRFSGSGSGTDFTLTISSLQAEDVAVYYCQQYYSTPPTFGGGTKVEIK
B9: antibody 564 (antibody, V domains shown)
VH: QVHLVESGGGVVQPGKSLRLSCAASGFIFSSFGMHWVRQPPGKGLEWLAVVSYDGSVTKYSDSFEGRFTISRDNSKNTLYLQMDSLRPEDTAVYYCAKGQGTNLLHYWGQGILVTVSS
VL: DVVLSQSPLSLPVTLGQPASISCRSSESLVYTDGDTYLHWFHQRPGQSPRRLIFKVSHRESGVPDRISGSGSGTDFTLKISRVEAEDVGVYYCMQGTHWPFTFGPGTKVDIK
B10: antibody 547 (antibody, V domains shown)
VH: QVHLVESGGGVVQPGRSLRLSCAASGFALSSYAMHWVRQPPGKGLEWVALISYDGSVKKYADSVKGRITVSGDNSRNTLHLQINSLRADDTAVYYCVRGGVSGPNSFDLWGHGTMVTVSS
VL: DVVLTQSPLSLPVTLGQPASISCRSSQSLEYSVGNTYVNWFQQRPGQSPRRLIYKVSNRDSGVPDRFSGSGSGTDFTLQISRVEADDVGIYYCMQGTHWPVTFGQGTKVEIK
B11: antibody 365 (antibody, V domains shown)
VH: QVQLVESGGGVVQPGRSLRLSCAASGFNLSSYAMHWVRQASGKGLEWVSLISYDGSIKYYTDSVKGRFTVSGDNSKNTLFLQMNSLRPDDSALYYCVRGGVSGPNSFDMWGQGTTVTVSS
VL: B10 VL with L4M, E30V, V33D, N58I, D60A, T77A, Q79K, D86E, I90V
B12: antibody 380 (antibody, V domains shown)
VH: QVQLVESGGGVVQPGRSLRLSCAASGFTLKNYGMHWVRQAPGKGLEWVIVLSFDGSDEYKADSVRGRFTVSRDNSKNTLFLQMNSLRPDDTAVYYCAREQPTMIEGGRGPFDIWGQGTMVTVSS
VL: EVVMTQSPATLSVSPGDRATLSCRASQGVNSNLAWYQQKPGQAPRLLIYAASTRATGIPARFSASGSGTHFTLTISSLQSEDFAVYYCLQYNNWPPWTFGQGTKLEIK
B13: antibody 548 (antibody, V domains shown)
VH: QVQLVESGGGVVQPGRSLRLSCAASGFTFSSYAMHWVRQAPGKGLEWVAVISYDGSNKYYADSVKGRFTISRDNSKNTLYLQMNNLRAEDTAVYYCAKSGSGSYLSAFDIWGQGTMVTVSS
VL: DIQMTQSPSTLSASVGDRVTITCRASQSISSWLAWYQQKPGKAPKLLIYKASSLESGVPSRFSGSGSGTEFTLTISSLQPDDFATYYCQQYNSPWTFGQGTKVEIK
B14: antibody 569 (antibody, V domains shown)
VH: B13 VH with N85S, K98R, S99A, G100S, S103G, L105Q, S106G, A107P, I110P, M116L
VL: EIVLTQSPATLSLSPGERATLSCRASQSVSSYLAWYQQKPGQAPRLLIYDASNRATGIPARFSGSGSGTDFTLTISSLEPEDFAVYYCQQRSSPFGPGTKVDIK
B15: antibody 385 (antibody, V domains shown)
VH: B13 VH with M34I, N85S, K98R, S99P, G100R, L105W, S106G
VL: QSVLTQPPSVSGAPGQRVTISCTGSSSNIGARYDVHWYQQLPGTAPKLLIYGNSNRPSGVPDRFSGSKSGTSASLAITGLQAEDEADYYCQSYDSSLRGVFGGGTKLTVL
B16: antibody 556 (antibody, V domains shown)
VH: QVQLVESGGGVVQPGRSLRLSCAASGFTFSSYAMHWVRQAPGKGLEWVAVISYDGSDKYYADSVKGRVTISRDNSKNTLYLQMNSLRVEDTAVFYCAKDDCSGGVCFPDYWGQGTLVTVSS
VL: QSALTQPASVSGSPGQSITISCTGTSSDVGGYNYVSWYQQHPGKAPKLMIYEVSIRPSGVSNRFSGSKSGNTASLTISGLQAEDEAAYYCSSYTSSSTLVFGGGTKLTVL
B17: anti-SARS-CoV-2 antibody 470 (antibody, V domains shown)
VH: not shown
VL: B16 VL with G31S, Y34L, I55K, A87D, S91C, T94A, S95G
B18: antibody 367 (antibody, V domains shown)
VH: QVQLVQSGAEVKKPGASVKVSCKASGYTFTGYYIHWVRQAPGQGLEWMGWINPNSGGTIYAQKFQGRVTMTRDTSISTAYMELSRLTSDDTAVYSCAREPYYDILTGYYAPRRYFDYWGQGTLVTVSS
VL: B16 VL with G31S, Q39L, E52D, I55N, A87D, Y88F, S96R, L99Y, G103T, L107V
B19: antibody 378 (antibody, V domains shown)
VH: QVQLVQSGAEVKKPGASVKVSCKASGYTFTSYYMHWVRQAPGQGLEWMGIINPSGGSTSYAQKFQGRVTMTRDTSTSTVYMELSSLRSEDTAVYYCARDSGGMDDFWSGYYSPGGDYWGQGTLVTVSS
VL: B16 VL with G31S, Y34L, V53G, I55K, A87D, S91C, T94A, S95G, L99W
B20: antibody 560 (antibody, V domains shown)
VH: EVQLVESGGGLVQPGGSLRLSCAASGFTISSNYMSWVRQAPGKGLEWVSVIYSGGSTYYADSVKGRFTISRDNSKNTLYLQMNSLRAEDTAVYYCAREEGEWEKDYYGMDVWGQGTTVTVSS
VL: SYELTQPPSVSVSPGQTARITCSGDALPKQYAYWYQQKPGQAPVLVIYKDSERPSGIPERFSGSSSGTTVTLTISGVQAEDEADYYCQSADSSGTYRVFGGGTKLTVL
B21: antibody 571 (antibody, V domains shown)
VH: EVQLVESGGGLVQPGGSLRLSCAASGFTFSTYWMTWVRQAPGKGLEWVANIKHDGSGKYHVDSVKGRFTISRDNAKNSLYLQMNSLRAEDTAVYYCTRDEGGWYDYWGQGTLVTVSS
VL: QSALTQPASVSGSPGQSITISCTGTSSDVGSYNPVSWYQQHPGKAPKVMIYEGSKRPSGVSNRFSGSKSGNTASLTISGLQAEDEADYYCCSYARSSTFVVFGGGTKLTVL
B22: antibody 366 (antibody, V domains shown)
VH: QVQLVESGGGVVQPGRSLRLSCAASGFTFSSYAMHWVRQAPGKGLEWVAVISYDGSNKYYADSVKGRFTISRDNSKNTLYLQMNSLRAEDTAVYYCARGLVGYNWFDPWGQGTLVTVSS
VL: DIQMTQSPSSVSASVGDRVTITCRASQGISSWLAWYQQKPGKAPKLLIYAASSLQSGVPSRFSGSGSGTDFTLTISSLQPEDFATYYCQQANSFTFGPGTKVDIK
B23: antibody 566 (antibody, V domains shown)
VH: QVQLVQSGAEVKKPGASVKVSCKASGYTFTSYAMHWVRQAPGQRLEWMGWINAGNGNTKYSQKFQGRVTITRDTSASTAYMELSSLRSEDTAVYYCARDLGVAVTLHPADFDYWGQGTLVTVSS
VL: QSVLTQPPSVSGAPGQRVTISCTGSSSNIGAGYDVHWYQQLPGTAPKLLIYDNSNRPSGVPDRFSGSKSGTSASLAITGLQAEDEADYYCQSYDSSLSAVVFGGGTKLTVL

Assays:
[1] = target: SARS-CoV-2 full length spike protein (wild type), conjugated to beads (SARS-CoV-2, UniProt P0DTC2 14-1208)
[2] = target: SARS-CoV-2 spike (S) protein, full length, wild type (SARS-CoV-2, UniProt P0DTC2 14-1208)
[3] = target: SARS-CoV-2 full length spike (S) protein, wild type, expressed on the surface of CHO cells (SARS-CoV-2, UniProt P0DTC2 14-1273)

Row | Binder | binding signal, bead assay [1] [fold over isotype] | median fluorescence intensity, fold over isotype control [3] [fold over isotype] | other results
1 | B1 | 552 | – | –
2 | B2 | 785 | – | –
3 | B3 | 592 | – | –
4 | B4 | – | – | median fluorescence fold over isotype [2]: 595 fold over isotype
5 | B5 | 823 | – | –
6 | B6 | 487 | – | –
7 | B7 | – | 1.11 | –
8 | B8 | – | 9.67 | –
9 | B9 | – | 10.8 | –
10 | B10 | – | 10.6 | –
11 | B11 | 533 | – | –
12 | B12 | 1.15 | – | –
13 | B13 | – | 9.26 | –
14 | B14 | – | 8.78 | –
15 | B15 | 602 | – | –
16 | B16 | – | 7.59 | –
17 | B17 | – | – | median fluorescence fold over isotype [2]: 1180 fold over isotype
18 | B18 | 1090 | – | –
19 | B19 | 526 | – | –
20 | B20 | – | 22.8 | –
21 | B21 | – | 8.3 | –
22 | B22 | 553 | – | –
23 | B23 | – | 31.5 | –
